In patent publication US20060063208A1:

Biological target: BMP-2 (human) (UniProt P12643)
Test: cell-based or functional assay

Sequence of BMP-2 (human) (P12643 283-396 limits assumed): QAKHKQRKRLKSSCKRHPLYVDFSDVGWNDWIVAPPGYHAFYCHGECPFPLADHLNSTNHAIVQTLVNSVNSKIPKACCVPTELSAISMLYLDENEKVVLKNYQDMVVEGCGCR

BMP-dependent signaling, Msx2-Luc reporter in 10T1/2 and HepG2 cells: 8 fold
luciferase activity of the BRE-luc reporter in LLC-PK1 cells: 14 fold
Substance: DRAGON (DRG11-Responsive Axonal Guidance and Outgrowth of Neurite), recombinant, expressed in transfected cells (from UniProt Q7TQ33 49-415) (receptor)
